Reference: IntAct's records for PubMed 17003112

B1: Nuclear factor NF-kappa-B p105 subunit (Homo sapiens), P19838 (parent)
chain: MAEDDPYLGRPEQMFHLDPSLTHTIFNPEVFQPQMALPTDGPYLQILEQPKQRGFRFRYVCEGPSHGGLPGASSEKNKKSYPQVKICNYVGPAKVIVQLVTNGKNIHLHAHSLVGKHCEDGICTVTAGPKDMVVGFANLGILHVTKKKVFETLEARMTEACIRGYNPGLLVHPDLAYLQAEGGGDRQLGDREKELIRQAALQQTKEMDLSVVRLMFTAFLPDSTGSFTRRLEPVVSDAIYDSKAPNASNLKIVRMDRTAGCVTGGEEIYLLCDKVQKDDIQIRFYEEEENGGVWEGFGDFSPTDVHRQFAIVFKTPKYKDINITKPASVFVQLRRKSDLETSEPKPFLYYPEIKDKEEVQRKRQKLMPNFSDSFGGGSGAGAGGGGMFGSGGGGGGTGSTGPGYSFPHYGFPTYGGITFHPGTTKSNAGMKHGTMDTESKKDPEGCDKSDDKNTVNLFGKVIETTEQDQEPSEATVGNGEVTLTYATGTKEESAGVQDNLFLEKAMQLAKRHANALFDYAVTGDVKMLLAVQRHLTAVQDENGDSVLHLAIIHLHSQLVRDLLEVTSGLISDDIINMRNDLYQTPLHLAVITKQEDVVEDLLRAGADLSLLDRLGNSVLHLAAKEGHDKVLSILLKHKKAALLLDHPNGDGLNAIHLAMMSNSLPCLLLLVAAGADVNAQEQKSGRTALHLAVEHDNISLAGCLLLEGDAHVDSTTYDGTTPLHIAAGRGSTRLAALLKAAGADPLVENFEPLYDLDDSWENAGEDEGVVPGTTPLDMATSWQVFDILNGKPYEPEFTSDDLLAQGDMKQLAEDVKLQLYKLLEIPDPDKNWATLAQKLGLGILNNAFRLSPAPSKTLMDNYEVSGGTVRELVEALRQMGYTEAIEVIQAASSPVKTTSQAHSLPLSPASTRQQIDELRDSDSVCDSGVETSFRKLSFTESLTSGASLLTLNKMPHDYGQEGPLEGKI

Variants of: B1
Conditions: with hif1n_human HIF1AN

effect of a mutation on the interaction	Variant
disrupting interaction strength	N678A
